{"source": "patent US20160108123A1", "about": "(Novartis, published 2016)", "binders": {"B1": {"name": "BAP058-hum03 (antibody, human IgG4 S228P, kappa, V domains shown)", "VH": "EVQLVQSGAEVKKPGATVKISCKVSGYTFTSYWMYWVRQATGQGLEWMGRIDPNSGSTKYNEKFKNRVTITADKSTSTAYMELSSLRSEDTAVYYCARDYRKGLYAMDYWGQGTTVTVSS", "VL": "EIVLTQSPDFQSVTPKEKVTITCKASQDVGTAVAWYLQKPGQSPQLLIYWASTRHTGVPDRFSGSGSGTDFTLKISRVEAEDVGVYYCQQYNSYPLTFGQGTKVEIKR", "notes": "Humanized IgG4(S228P)/human kappa mAb expressed in CHO cells"}, "B2": {"name": "BAP058-hum07 (antibody, human IgG4 S228P, kappa, V domains shown)", "VH": "QVQLVQSGAEVKKPGASVKVSCKASGYTFTSYWMYWIRQSPSRGLEWLGRIDPNSGSTKYNEKFKNRFTISRDDSKNTAYLQMNSLKTEDTAVYYCARDYRKGLYAMDYWGQGTTVTVSS", "VL": "EIVLTQSPATLSLSPGERATLSCKASQDVGTAVAWYLQKPGQSPQLLIYWASTRHTGIPPRFSGSGYGTDFTLTINNIESEDAAYYFCQQYNSYPLTFGQGTKVEIKR", "notes": "as for B1"}, "B3": {"name": "chimeric mAb BAP058-chi (antibody, V domains shown)", "VH": "EVQLQQSGAELVKPGASVKLSCKASGYTFTSYWMYWVKQGPGRGLEWIGRIDPNSGSTKYNEKFKNKATLTVDKSSSTAYMQLSSLTSEDSAVYYCARDYRKGLYAMDYWGQGTTVTVSS", "VL": "DIMMTQSHKFMSTSVGDRVSITCKASQDVGTAVAWYQQKPGQSPKLLIYWASTRHTGVPDRFTGSGSGTDFTLTISNVQSEDLADYFCQQYNSYPLTFGQGTKVEIK", "notes": "also called chimeric antibody; the chimera"}, "B4": {"name": "BAP058-hum01 (antibody, human IgG4 S228P, kappa, V domains shown)", "VH": "B2 VH with I37V, S40A, P41T, S42G, R43Q, L48M", "VL": "DIVMTQTPLSLPVTPGEPASISCKASQDVGTAVAWYLQKPGQSPQLLIYWASTRHTGIPARFSGSGSGTEFTLTISSLQSEDFAVYYCQQYNSYPLTFGQGTKVEIKR", "notes": "as for B1"}, "B5": {"name": "BAP058-hum02 (antibody, human IgG4 S228P, kappa, V domains shown)", "VH": "B2 VH with I37V, S40A, P41T, S42G, R43Q, L48M", "VL": "DIQMTQSPSSLSASVGDRVTITCKASQDVGTAVAWYLQKPGQSPQLLIYWASTRHTGVPSRFSGSGSGTDFTLTISSLQPEDFATYYCQQYNSYPLTFGQGTKVEIKR", "notes": "as for B1"}, "B6": {"name": "BAP058-hum05 (antibody, human IgG4 S228P, kappa, V domains shown)", "VH": "EVQLVQSGAEVKKPGATVKISCKVSGYTFTSYWMYWIRQSPSRGLEWLGRIDPNSGSTKYNEKFKNRLTISKDTSKNQVVLTMTNMDPVDTATYYCARDYRKGLYAMDYWGQGTTVTVSS", "VL": "B1 VL with D60S, L73F, K74T, R77S, V78L, E79Q, A80P, V83I, G84A, V85T", "notes": "as for B1"}, "B7": {"name": "BAP058-hum06 (antibody, human IgG4 S228P, kappa, V domains shown)", "VH": "B1 VH with A16E, T17S, V18L, K19R, V24G, V37I, A40P, T41P, Q43K, M48I", "VL": "B1 VL with D60S, L73F, K74T, R77S, V78L, E79Q, A80P, V83I, G84A, V85T", "notes": "as for B1"}, "B8": {"name": "BAP058-hum15 (antibody, human IgG4 S228P, kappa, V domains shown)", "VH": "B1 VH with A16E, T17S, V18L, K19R, V24G, V37I, A40P, T41P, Q43K, M48I", "VL": "EIVLTQSPDFQSVTPKEKVTITCKASQDVGTAVAWYQQKPGQAPRLLIYWASTRHTGVPSRFSGSGSGTEFTLTISSLQPDDFATYYCQQYNSYPLTFGQGTKVEIKR", "notes": "as for B1"}, "B9": {"name": "BAP058-hum08 (antibody, human IgG4 S228P, kappa)", "heavy": "not shown", "light": "DVVMTQSPLSLPVTLGQPASISCKASQDVGTAVAWYQQKPGQAPRLLIYWASTRHTGVPSRFSGSGSGTEFTLTISSLQPDDFATYYCQQYNSYPLTFGQGTKVEIKRTVAAPSVFIFPPSDEQLKSGTASVVCLLNNFYPREAKVQWKVDNALQSGNSQESVTEQDSKDSTYSLSSTLTLSKADYEKHKVYACEVTHQGLSSPVTKSFNRGEC", "notes": "as for B1"}, "B10": {"name": "BAP058-hum09 (antibody, human IgG4 S228P, kappa, V domains shown)", "VH": "B1 VH with A16E, T17S, V18L, K19R, V24G, V37I, A40P, T41P, Q43K, M48I", "VL": "B4 VL", "notes": "as for B1"}, "B11": {"name": "BAP058-hum12 (antibody, human IgG4 S228P, kappa, V domains shown)", "VH": "EVQLVQSGAEVKKPGESLRISCKGSGYTFTSYWMYWVRQAPGQGLEWMGRIDPNSGSTKYNEKFKNRVTISVDTSKNQFSLKLSSVTAADTAVYYCARDYRKGLYAMDYWGQGTTVTVSS", "VL": "B5 VL with L37Q, S43A, Q45R, L73F, F83I", "notes": "as for B1"}, "B12": {"name": "BAP058-hum14 (antibody, human IgG4 S228P, kappa, V domains shown)", "VH": "B2 VH with I37V, S40A, P41T, S42G, R43Q, L48M", "VL": "B8 VL", "notes": "as for B1"}, "B13": {"name": "BAP058-hum16 (antibody, human IgG4 S228P, kappa, V domains shown)", "VH": "B2 VH", "VL": "B8 VL", "notes": "as for B1"}, "B14": {"name": "BAP058-hum17 (antibody, human IgG4 S228P, kappa)", "heavy": "not shown", "light": "EIVLTQSPDFQSVTPKEKVTITCKASQDVGTAVAWYQQKPGQAPRLLIYWASTRHTGVPSRFSGSGSGTEFTLTISSLQPDDFATYYCQQYNSYPLTFGQGTKVEIKRTVAAPSVFIFPPSDEQLKSGTASVVCLLNNFYPREAKVQWKVDNALQSGNSQESVTEQDSKDSTYSLSSTLTLSKADYEKHKVYACEVTHQGLSSPVTKSFNRGEC", "notes": "as for B1"}, "B15": {"name": "BAP058-hum10 (antibody, human IgG4 S228P, kappa, V domains shown)", "VH": "QITLKESGPTLVKPTQTLTLTCTFSGYTFTSYWMYWVRQAPGKGLEWVSRIDPNSGSTKYNEKFKNRVTITADKSTSTAYMELSSLRSEDTAVYYCARDYRKGLYAMDYWGQGTTVTVSS", "VL": "DVVMTQSPLSLPVTLGQPASISCKASQDVGTAVAWYQQKPGQAPRLLIYWASTRHTGVPSRFSGSGSGTEFTLTISSLQPDDFATYYCQQYNSYPLTFGQGTKVEIKR", "notes": "as for B1"}}, "note": "Numbering of substitutions follows the chain as printed. In names and notes the source's numbering stands."}
{"target": "T1, human PD-L1 expressed on 300.19 cells (human, UniProt Q9NZQ7 19-290)", "T1 construct": "whole, on cells; also called huPD-L1; PD-L1-expressing 300.19 cells", "T1 sequence (Q9NZQ7 19-290)": "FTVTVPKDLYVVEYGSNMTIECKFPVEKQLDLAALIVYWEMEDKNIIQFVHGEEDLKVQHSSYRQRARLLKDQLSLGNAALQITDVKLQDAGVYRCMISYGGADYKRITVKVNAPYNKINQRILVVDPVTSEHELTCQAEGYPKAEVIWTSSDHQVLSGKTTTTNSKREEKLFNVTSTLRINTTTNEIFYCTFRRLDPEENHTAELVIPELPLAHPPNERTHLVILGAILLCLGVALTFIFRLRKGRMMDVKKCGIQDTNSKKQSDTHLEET", "assay": "blocking of PE-labelled PD-1-Ig (0.7 µg/mL) binding to PD-L1-expressing 300.19 cells, FACS, 4 C, 4 h", "experimental": "Bound fluorescence was then measured using FACS and IC₅₀ values determined using Prism software.", "units": {"IC50 (read off the curve)": "µg/mL"}}
{"binder": "B1", "IC50 (read off the curve)": "~0.04"}
{"binder": "B2", "IC50 (read off the curve)": "~0.04"}
{"binder": "B3", "IC50 (read off the curve)": "~0.04"}
{"target": "T1, human PD-L1 expressed on 300.19 cells", "assay": "competition FACS against Alexa 488-labeled murine BAP058 on PD-L1-expressing 300.19 cells", "experimental": "Incubations with the mAb mixtures having different concentration ratios of test mAb to labeled mAb was at 4° C. for 30 min. Bound labeled murine mAb was then quantified using a FACS machine. The experiment was performed twice."}
{"binder": "B4", "Comp. binding (ratio conc. test mAb / conc. labelled murine BAP058 at the IC50)": 2.56}
{"binder": "B5", "Comp. binding (ratio conc. test mAb / conc. labelled murine BAP058 at the IC50)": 2.14}
{"binder": "B1", "Comp. binding (ratio conc. test mAb / conc. labelled murine BAP058 at the IC50)": 1.87}
{"binder": "B6", "Comp. binding (ratio conc. test mAb / conc. labelled murine BAP058 at the IC50)": 1.71}
{"binder": "B7", "Comp. binding (ratio conc. test mAb / conc. labelled murine BAP058 at the IC50)": 1.39}
{"binder": "B8", "Comp. binding (ratio conc. test mAb / conc. labelled murine BAP058 at the IC50)": 4.64}
{"binder": "B2", "Comp. binding (ratio conc. test mAb / conc. labelled murine BAP058 at the IC50)": 1.8}
{"binder": "B9", "Comp. binding (ratio conc. test mAb / conc. labelled murine BAP058 at the IC50)": 3.38}
{"binder": "B10", "Comp. binding (ratio conc. test mAb / conc. labelled murine BAP058 at the IC50)": 1.96}
{"binder": "B11", "Comp. binding (ratio conc. test mAb / conc. labelled murine BAP058 at the IC50)": 2.27}
{"binder": "B12", "Comp. binding (ratio conc. test mAb / conc. labelled murine BAP058 at the IC50)": 4.59}
{"binder": "B13", "Comp. binding (ratio conc. test mAb / conc. labelled murine BAP058 at the IC50)": 2.47}
{"binder": "B14", "Comp. binding (ratio conc. test mAb / conc. labelled murine BAP058 at the IC50)": 2.16}
{"target": "T1, human PD-L1 expressed on 300.19 cells", "assay": "semi-quantitative ranking in the binding studies (4th column, p-1058; FACS data, p-1056); high number = poorer binder; the column's head says only 'Rank'"}
{"binder": "B4", "Rank": 17}
{"binder": "B5", "Rank": 17}
{"binder": "B1", "Rank": 1}
{"binder": "B6", "Rank": 2}
{"binder": "B7", "Rank": 2}
{"binder": "B8", "Rank": 17}
{"binder": "B2", "Rank": 2}
{"binder": "B9", "Rank": 17}
{"binder": "B10", "Rank": 3}
{"binder": "B11", "Rank": 4}
{"binder": "B12", "Rank": 4}
{"binder": "B13", "Rank": 4}
{"binder": "B14", "Rank": 4}
{"binder": "B15", "Rank": 4}
